From patent US20200399344A1 (SHATTUCK LABS, published 2020)
Values joined by “and” are separate entries in the source; they are usually repeats but may differ in a detail not shown here. Identical values can stand only once. Values belong to the binder of their own block, whether it stands above or below them.

Assays:
[1] = target: T1, recombinant human 2B4-Fc fusion protein (rh2B4-Fc) (human, UniProt Q9BZW8-2 22-221, limits assumed); assay: dual ELISA; coat rh2B4-Fc, hCD86-Fc-NKG2A titrated, detection HLA-E-His, Anti 6x-His-HRP
T1 construct: not shown: Fc
T1 sequence (looked up): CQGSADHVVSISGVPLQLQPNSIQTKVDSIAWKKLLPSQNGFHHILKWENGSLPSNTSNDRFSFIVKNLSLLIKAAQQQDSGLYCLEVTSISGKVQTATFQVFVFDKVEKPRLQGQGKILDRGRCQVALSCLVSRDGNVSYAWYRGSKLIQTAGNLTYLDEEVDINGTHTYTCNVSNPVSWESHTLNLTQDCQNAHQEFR
Procedure: (§1) (i) recombinant human 2B4-Fc fusion protein (rh2B4-Fc) was coated on plates. Increasing amounts of the hCD48-Fc-NKG2A or hCD86-Fc-NKG2A chimeric proteins were added and detected using HLA-E-His. The hCD86-Fc-NKG2A chimeric protein was used as a negative control (Negative control #1). […] (ii) recombinant human CD2-Fc fusion protein (rhCD2-Fc) was coated on plates. Increasing amounts of the hCD58-Fc-NKG2A or hCD86-Fc-NKG2A chimeric proteins were added and detected using HLA-E-His. The hCD86-Fc-NKG2A chimeric protein was used as a negative control (Negative control #2).
(§2) To understand whether the hCD48-Fc-NKG2A chimeric protein can bind simultaneously to both 2B4 and HLA-E, the following ELISA experiment was carried out. Briefly, and recombinant 2B4 (rh2B4-Fc) protein was coated on plates. Increasing amounts of the hCD48-Fc-NKG2A chimeric protein was added to the plates for capture by the recombinant human 2B4-Fc (rh2B4-Fc) protein. Further, recombinant HLA-E (HLA-E-His) protein was added to the plate for capture by hCD48-Fc-NKG2A chimeric proteins. The binding of the HLA-E-His protein was detected using an anti-His 6× HRP antibody.

[2] = target: T2, hCD28 expressed on CHO-K1/hCD28 cells (human, UniProt P10747 19-220); assay: flow cytometry on CHO-K1/hCD28 cells (hCD28-C1), APC-A, dose series (doses not given)
T2 construct: whole, on cells; also called CHO-K1/CD28
T2 sequence (P10747 19-220): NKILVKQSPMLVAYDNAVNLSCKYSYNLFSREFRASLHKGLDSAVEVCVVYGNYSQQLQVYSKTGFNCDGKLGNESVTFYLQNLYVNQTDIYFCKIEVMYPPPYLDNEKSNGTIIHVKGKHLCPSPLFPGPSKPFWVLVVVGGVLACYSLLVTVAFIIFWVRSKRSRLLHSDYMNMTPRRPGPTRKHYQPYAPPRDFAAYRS
Procedure: To determine whether the hCD86-Fc-NKG2A chimeric protein can specifically bind the CHO-K1/hCD28 cells, a flow-cytometry-based assay was carried out. […] The dose dependent shifts in the flow cytometry profiles illustrate a dose-dependent binding of the hCD86-Fc-NKG2A chimeric protein to hCD28 expressed by the CHO-K1/hCD28 cells. A quantitation of binding confirmed a dose-dependent binding (FIG. 65).

[3] = target: T3, recombinant human CD28-His (rhCD28-His) (human, UniProt P10747 19-152); assay: ELISA: coat rhCD28-His (Acro), detection Anti-hFc-HRP
T3 construct: also called Human CD28-His protein; recombinant CD28 protein; not shown: His tag
T3 sequence (P10747 19-152 limits assumed): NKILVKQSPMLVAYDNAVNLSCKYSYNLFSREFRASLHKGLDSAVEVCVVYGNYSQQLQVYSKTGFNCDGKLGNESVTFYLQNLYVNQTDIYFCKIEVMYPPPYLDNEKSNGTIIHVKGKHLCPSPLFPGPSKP
Procedure: To understand whether the CD80 and CD86 parts of the hCD80-Fc-NKG2A and hCD86-Fc-NKG2A chimeric protein can bind CD28, ELISA-based assays were performed. Briefly, recombinant CD28 protein was coated on plates and increasing amounts of the hCD80-Fc-NKG2A, hCD86-Fc-NKG2A, and mCD48-Fc-NKG2A chimeric proteins, and recombinant human CD86-Fc (rhCD86-Fc) protein was added to the plates for capture by the plate-bound recombinant CD28 protein. The mCD48-Fc-NKG2A chimeric protein, and recombinant human CDrhCD86-Fc protein was used as negative and positive controls, respectively. The chimeric proteins bound to the recombinant CD28 protein was detected using an anti-human Fc HRP.

[4] = target: T4, recombinant human CD2-Fc fusion protein (rhCD2-Fc) (human, UniProt P06729 25-209); assay: dual ELISA; coat rhCD2-Fc, hCD86-Fc-NKG2A titrated, detection HLA-E-His, Anti 6x-His-HRP
T4 construct: not shown: Fc
T4 sequence (looked up): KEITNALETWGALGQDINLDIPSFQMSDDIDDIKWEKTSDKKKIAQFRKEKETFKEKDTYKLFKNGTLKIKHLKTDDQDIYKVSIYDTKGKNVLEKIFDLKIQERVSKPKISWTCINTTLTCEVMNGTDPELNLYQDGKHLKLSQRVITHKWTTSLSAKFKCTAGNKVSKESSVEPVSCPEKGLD
Procedure: as §1
as §2, with “hCD58-Fc-NKG2A” for “hCD48-Fc-NKG2A”, “CD2” for “2B4”, “CD2 (rhCD2-Fc)” for “2B4 (rh2B4-Fc)”, “CD2-Fc (rhCD2-Fc)” for “2B4-Fc (rh2B4-Fc)”

[5] = target: T5, anti-human IgG antibody (plate-bound); assay: ELISA (single sided Fc): coat Anti-Human IgG (H+L) Jax# 109-005-088, detection HRP Goat anti-human FCgamma
T5 construct: also called anti-human Fc antibody
Procedure: Anti-human IgG was coated on plates and increasing amounts of the indicated chimeric proteins were added to the plates. hIgG was used as a positive control, and mCD80-Fc-NKG2A was used as a negative control. The binding was detected using an anti-human Fcgamma HRP.
To understand whether the Fc linkers from the native chimeric proteins can be accessed by anti-human antibodies, ELISA-based assays were performed. For these assays, an anti-human IgG antibody was coated on plates and increasing amounts of the hCD86-Fc-NKG2A and hTGFBR2-Fc-NKG2A, mCD80-Fc-NKG2a chimeric proteins, and a human IgG antibody were added to the plates for capture by the plate-bound anti-human antibody. The human IgG antibody was used as a positive control and to generate a standard curve. The mCD80-Fc-NKG2a chimeric protein was included as a negative control as containing a non-human Fc domain. The protein bound to the anti-human IgG antibody was detected using an anti-human Fcgamma HRP.

[6] = target: T6, recombinant human CD28-Fc (rhCD28-Fc) protein (human, UniProt P10747 19-152); assay: dual ELISA; coat rhCD28-Fc, hCD86-Fc-NKG2a titrated, detection HLA-E-His, Anti-His-6x-HRP; the signal needs both bindings
T6 construct: not shown: Fc
T6 sequence (P10747 19-152 limits assumed): as the sequence (P10747 19-152 limits assumed) above
Procedure: To understand whether the hCD86-Fc-NKG2A chimeric protein can binds simultaneously to both hCD28 and HLA-E, the following ELISA experiment was carried out. Briefly, and recombinant hCD28 (rhCD28-Fc) protein was coated on plates. Increasing amounts of the hCD86-Fc-NKG2A chimeric protein was added to the plates for capture by the rhCD28-Fc protein. Further, recombinant HLA-E (HLA-E-His) protein was added to the plate for capture by hCD86-Fc-NKG2A chimeric protein. The binding of the HLA-E-His protein was detected using an anti-His 6× HRP antibody.

[7] = target: T7, HLA class I histocompatibility antigen, alpha chain E (HLA-E), plate-bound recombinant protein (human, UniProt P13747 22-305, limits assumed); assay: ELISA (single-sided): coat hHLA-E (Novus), detect Anti-mFc-HRP (Jax)
T7 construct: no tag named there; also called recombinant HLA-E protein
T7 sequence (P13747 22-305 limits assumed): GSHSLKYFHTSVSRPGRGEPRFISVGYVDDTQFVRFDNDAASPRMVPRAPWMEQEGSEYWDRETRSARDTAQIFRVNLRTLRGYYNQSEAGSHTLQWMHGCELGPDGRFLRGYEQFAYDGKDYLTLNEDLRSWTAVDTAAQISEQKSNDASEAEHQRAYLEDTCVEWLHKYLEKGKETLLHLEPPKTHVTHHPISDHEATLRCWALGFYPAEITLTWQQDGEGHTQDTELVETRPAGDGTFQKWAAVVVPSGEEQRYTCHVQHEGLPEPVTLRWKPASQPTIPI

[8] = target: T8, goat anti-mCD48 antibody; assay: Dual binding ELISA: coat mHLA-E (Novus) as printed, detect Anti-mCD48 (R&D), HRP Anti-Goat HRP; flat curve
T8 construct: also called anti-CD48; Anti-CD48

[9] = target: T9, mCTLA-4, plate-bound (mouse, UniProt P09793 36-162, limits assumed); assay: ELISA (single-sided): coat mCTLA-4 (R&D), detect Anti-mFc-HRP (Jax); curve near the baseline, about 0.25 only at the highest concentration
[10] = target: T9, mCTLA-4, plate-bound; assay: ELISA (single-sided): coat mCTLA-4 (R&D), detect Anti-mFc-HRP (Jax)
[11] = target: T10, PD-L1, plate-bound (Example 8) (Homo sapiens (Human), UniProt Q9NZQ7 19-238); assay: Dual ELISA (capturing with PDL1): coat hPDL1-Fc (R&D), detect hHLA-E (Novus), HRP Anti-6X His; curve low, about 0.45 at the highest concentration
T10 construct: not shown: The Fc carrier of the vendor's hPD-L1-Fc (R&D) and any linker
T10 sequence (Q9NZQ7 19-238 limits assumed): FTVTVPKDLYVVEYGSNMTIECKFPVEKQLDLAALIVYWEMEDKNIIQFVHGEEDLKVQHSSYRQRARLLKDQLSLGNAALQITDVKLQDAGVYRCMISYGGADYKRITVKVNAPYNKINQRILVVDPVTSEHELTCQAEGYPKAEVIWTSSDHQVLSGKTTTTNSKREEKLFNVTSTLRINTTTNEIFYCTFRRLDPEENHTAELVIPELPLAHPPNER

[12] = target: T11, recombinant mCD47 (mCD47-His) protein (mouse, UniProt Q61735 19-140, limits assumed); assay: dual/PK ELISA; coat αNKG2a (1:10k), mCD86-fc-NKG2a titrated, detection mCD47-His (5ug/ml), His-HRP
T11 construct: not shown: His tag
T11 sequence (looked up): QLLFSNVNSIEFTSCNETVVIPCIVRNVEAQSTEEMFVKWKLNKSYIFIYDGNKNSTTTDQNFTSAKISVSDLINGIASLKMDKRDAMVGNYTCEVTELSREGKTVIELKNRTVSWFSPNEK
Procedure: Increasing amounts of the mSIRPα-Fc-NKG2A chimeric protein was added and detected using mCD47-His. The CD86-Fc-NKG2A chimeric protein was used as a negative control.
To understand whether the mSIRPα-Fc-NKG2A chimeric protein can binds simultaneously to both anti-NKG2a and CD47, the following ELISA experiment was carried out. Briefly, and anti-NKG2a antibody was coated on plates. Increasing amounts of the mSIRPα-Fc-NKG2A and mCD48-Fc-NKG2A chimeric proteins were added to the plates for capture by the anti-NKG2a antibody. Further, recombinant mCD47 (mCD47-His) protein was added to the plate for capture by mSIRPα-Fc-NKG2A chimeric protein. The binding of the mCD47-His protein was detected using an anti-His HRP antibody.

- binding result [2]: binds
- binding result [3]: binds
- EC50 (read off the curve) [5]: ~1 µg/mL
- binding result [6]: binds
B1: human CD86-Fc-NKG2A chimeric protein (Fc fusion)
chain: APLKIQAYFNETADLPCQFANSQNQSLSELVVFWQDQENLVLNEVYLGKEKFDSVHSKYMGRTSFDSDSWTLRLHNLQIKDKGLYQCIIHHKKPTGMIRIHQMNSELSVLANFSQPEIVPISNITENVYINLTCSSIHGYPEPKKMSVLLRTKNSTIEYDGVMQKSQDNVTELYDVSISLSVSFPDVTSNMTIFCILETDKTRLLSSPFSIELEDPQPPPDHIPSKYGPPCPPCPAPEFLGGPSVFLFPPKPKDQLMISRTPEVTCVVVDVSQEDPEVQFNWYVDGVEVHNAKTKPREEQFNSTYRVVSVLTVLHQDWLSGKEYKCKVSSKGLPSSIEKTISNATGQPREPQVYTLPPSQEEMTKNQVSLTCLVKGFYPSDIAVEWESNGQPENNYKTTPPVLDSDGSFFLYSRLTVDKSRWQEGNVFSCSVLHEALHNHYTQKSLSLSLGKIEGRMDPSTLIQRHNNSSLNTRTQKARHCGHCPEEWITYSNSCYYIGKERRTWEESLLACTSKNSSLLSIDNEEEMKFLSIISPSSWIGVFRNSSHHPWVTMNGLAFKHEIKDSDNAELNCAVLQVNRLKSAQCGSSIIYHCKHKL
notes: also called hCD86-Fc-NKG2A
- binding result [1]: no binding (tested: about log 2.7 ug/ml (roughly 500 ug/ml))
- binding result [4]: no binding (tested: about log 2.7 ug/ml (roughly 500 ug/ml))

- EC50 [7]: 0.0661 µM and 0.0832 µM
- EC50 [8]: ~0.00555 µM
- EC50 [9]: ~4050 µM
- EC50 [10]: 0.000658 µM
- EC50 [11]: 1.65 µM
B2: mouse CD86-Fc-NKG2A chimeric protein (Fc fusion)
chain: VSVETQAYFNGTAYLPCPFTKAQNISLSELVVFWQDQQKLVLYEHYLGTEKLDSVNAKYLGRTSFDRNNWTLRLHNVQIKDMGSYDCFIQKKPPTGSIILQQTLTELSVIANFSEPEIKLAQNVTGNSGINLTCTSKQGHPKPKKMYFLITNSTNEYGDNMQISQDNVTELFSISNSLSLSFPDGVWHMTVVCVLETESMKISSKPLNFTQEFPSPQTYWKVPRDCGCKPCICTVPEVSSVFIFPPKPKDVLTITLTPKVTCVVVDISKDDPEVQFSWFVDDVEVHTAQTQPREEQFNSTFRSVSELPIMHQDWLNGKEFKCRVNSAAFPAPIEKTISKTKGRPKAPQVYTIPPPKEQMAKDKVSLTCMITDFFPEDITVEWQWNGQPAENYKNTQPIMDTDGSYFVYSKLNVQKSNWEAGNTFTCSVLHEGLHNHHTEKSLSHSPGIIEGRMDTPYTEAKAQINSSMTRTHRDINYTLSSAQPCPHCPKEWISYSHNCYFIGMERKSWNDSLVSCISKNCSLLYIDSEEEQDFLQSLSLISWTGILRKGRGQPWVWKEDSIFKPKIAEILHDECNCAMMSASGLTADNCTTLHPYLCKCKFPI
notes: Batch 1 and Batch 2 were tested; also called mCD86-Fc-NKG2A
- binding result [12]: no binding (tested: about log 1.8 ug/ml (roughly 60 ug/ml))
